Experimental findings from PMC6325244, “Regulation of the Peptidoglycan Polymerase Activity of PBP1b by Antagonist Actions of the Core Divisome Proteins FtsBLQ and FtsN” (mBio, 2019) are described below.

The target of test [1] is T1, PBP1b (E. coli, UniProt P02919 1-844, fluorescent ampicillin label added after elution).
T1 construct: PBP1b, E. coli, class A PBP, bifunctional glycosyltransferase/transpeptidase; Untagged as prey of HisFtsBLQ, HisFtsBL, HisFtsQ and HisFtsW; also called untagged PBP1b; source: E. coli C43 (DE3) or Lemo21 (DE3), coexpressed from Duet vectors, in detergent extract of membranes
T1 sequence (looked up): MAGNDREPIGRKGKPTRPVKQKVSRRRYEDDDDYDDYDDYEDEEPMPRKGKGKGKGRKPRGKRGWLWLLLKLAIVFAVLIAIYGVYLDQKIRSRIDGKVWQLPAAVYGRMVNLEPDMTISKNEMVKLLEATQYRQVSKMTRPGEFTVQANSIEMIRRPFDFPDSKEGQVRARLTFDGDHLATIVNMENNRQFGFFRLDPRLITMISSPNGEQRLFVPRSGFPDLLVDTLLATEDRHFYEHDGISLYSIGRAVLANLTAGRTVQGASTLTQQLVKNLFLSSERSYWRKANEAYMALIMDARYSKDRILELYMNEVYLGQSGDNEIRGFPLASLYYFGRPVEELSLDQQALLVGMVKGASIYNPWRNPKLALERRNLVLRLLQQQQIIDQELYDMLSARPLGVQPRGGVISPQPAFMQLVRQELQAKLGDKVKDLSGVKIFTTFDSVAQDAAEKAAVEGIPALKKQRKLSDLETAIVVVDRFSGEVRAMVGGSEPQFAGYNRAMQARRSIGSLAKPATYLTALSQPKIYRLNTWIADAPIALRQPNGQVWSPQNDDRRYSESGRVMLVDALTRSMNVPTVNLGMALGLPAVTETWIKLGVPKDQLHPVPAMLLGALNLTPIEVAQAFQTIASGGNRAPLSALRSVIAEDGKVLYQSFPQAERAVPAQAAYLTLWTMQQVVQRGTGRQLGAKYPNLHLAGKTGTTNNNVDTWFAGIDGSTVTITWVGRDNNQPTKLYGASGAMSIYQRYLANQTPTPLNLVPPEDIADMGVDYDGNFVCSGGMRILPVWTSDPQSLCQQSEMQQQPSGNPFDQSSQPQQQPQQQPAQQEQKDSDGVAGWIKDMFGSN

Test [2] has as its target T1, PBP1b. Description: pull-down + SEC; PBP1b copurified with FtsN or FtsN W83L on a nickel column followed by gel filtration; SDS-PAGE, Coomassie, band amounts by Image Quant TL.

For the molecule “FtsN^W83L (from UniProt P29131 1-319) (natural protein)”, the fold decrease in stimulation of the GTase activity of PBP1b (continuous fluorescence assay), initial velocity against wild-type FtsN with PBP1b [1] worked out at 2 fold. Further, in the test with PBP1b [2], the PBP1b/FtsN ratio in the copurified complex after gel filtration (parts PBP1b of 100 (PBP1b/FtsN 20/80)) amounted to 20.

B1: FtsN (natural protein, E. coli, UniProt P29131 1-319, looked up)
chain: MAQRDYVRRSQPAPSRRKKSTSRKKQRNLPAVSPAMVAIAAAVLVTFIGGLYFITHHKKEESETLQSQKVTGNGLPPKPEERWRYIKELESRQPGVRAPTEPSAGGEVKTPEQLTPEQRQLLEQMQADMRQQPTQLVEVPWNEQTPEQRQQTLQRQRQAQQLAEQQRLAQQSRTTEQSWQQQTRTSQAAPVQAQPRQSKPASSQQPYQDLLQTPAHTTAQSKPQQAAPVARAADAPKPTAEKKDERRWMVQCGSFRGAEQAETVRAQLAFEGFDSKITTNNGWNRVVIGPVKGKENADSTLNRLKMAGHTNCIRLAAGG
notes: FtsN, E. coli, bitopic membrane protein; also called FtsN^WT; FtsNWT; source: E. coli C43 (DE3) or Lemo21 (DE3), coexpressed from Duet vectors, in detergent extract of membranes; also purified
In the case of B1, in the test with PBP1b [2] (partners not purified), the “PBP1b/FtsN ratio in the copurified complex after gel filtration” value was ~40 parts PBP1b of 100 (PBP1b/FtsN 40/60).
